Assay results published in patent publication US20110028686A1 (published 2011).
Where two headings read alike, the source gives them in different places. Square brackets hold non-standard residues; d marks the D form. Ends that are not written are not given here. pS = N[C@@H](COP(=O)(O)O)C(=O)O

What was measured:
CBP KIX L599A [1] = target: T1, CBP KIX L599A (UniProt P45481 586-665, limits assumed); assay: FP, 25 nM fluorescein-labelled ligand titrated with CBP KIX variant, 25 C
T1 construct: domain: KIX

CBP KIX L603A [2] = target: T2, CBP KIX L603A (UniProt P45481 586-665, limits assumed); assay: as above
T2 construct: domain: KIX

CBP KIX LL652-3AA [3] = target: T3, CBP KIX LL652-3AA (UniProt P45481 586-665, limits assumed); assay: as above
T3 construct: domain: KIX

CBP KIX E655A [4] = target: T4, CBP KIX E655A (UniProt P45481 586-665, limits assumed); assay: as above
T4 construct: domain: KIX

CBP KIX Y658A [5] = target: T5, CBP KIX Y658A (UniProt P45481 586-665, limits assumed); assay: as above
T5 construct: domain: KIX

CBP KIX K662A [6] = target: T6, CBP KIX K662A (UniProt P45481 586-665, limits assumed); assay: as above
T6 construct: domain: KIX

CBP KIX I657A [7] = target: T7, CBP KIX I657A (UniProt P45481 586-665, limits assumed); assay: as above
T7 construct: domain: KIX; also called 1657A

CBP KIX Q661A [8] = target: T8, CBP KIX Q661A (UniProt P45481 586-665, limits assumed); assay: as above
T8 construct: domain: KIX

CBP KIX I660A [9] = target: T9, CBP KIX I660A (UniProt P45481 586-665, limits assumed); assay: as above
T9 construct: domain: KIX; also called 1660A

[10] = target: T10, CBP KIX Y650A (Example 20) (UniProt P45481 586-665, limits assumed); assay: as above
T10 construct: domain: KIX

CBP KIX K606A [11] = target: T11, CBP KIX K606A (UniProt P45481 586-665, limits assumed); assay: as above
T11 construct: domain: KIX

CBP KIX Y658F [12] = target: T12, CBP KIX Y658F (UniProt P45481 586-665, limits assumed); assay: as above
T12 construct: domain: KIX

HisKIX [13] = target: T13, HisKIX (UniProt P45481 586-672); assay: FP with HisKIX
T13 construct: range 586-672; the residue numbers fit mouse CBP; also called His-tagged CBP KIX domain; CBP KIX; not shown: amino-terminal hexahistidine tag and linker of pET15b

CBP KIX L599A [14] = target: T1, CBP KIX L599A; assay: FP with CBP KIX variant
CBP KIX L603A [15] = target: T2, CBP KIX L603A; assay: FP with CBP KIX variant
CBP KIX LL652-3AA [16] = target: T3, CBP KIX LL652-3AA; assay: FP with CBP KIX variant
CBP KIX E655A [17] = target: T4, CBP KIX E655A; assay: FP with CBP KIX variant
CBP KIX Y658A [18] = target: T5, CBP KIX Y658A; assay: FP with CBP KIX variant
CBP KIX K662A [19] = target: T6, CBP KIX K662A; assay: FP with CBP KIX variant
CBP KIX I657A [20] = target: T7, CBP KIX I657A; assay: FP with CBP KIX variant
CBP KIX Q661A [21] = target: T8, CBP KIX Q661A; assay: FP with CBP KIX variant
CBP KIX I660A [22] = target: T9, CBP KIX I660A; assay: FP with CBP KIX variant
[23] = target: T10, CBP KIX Y650A (Example 20); assay: FP with CBP KIX variant
CBP KIX K606A [24] = target: T11, CBP KIX K606A; assay: FP with CBP KIX variant
CBP KIX Y658F [25] = target: T12, CBP KIX Y658F; assay: FP with CBP KIX variant
[26] = target: T14, CBP KIX, wild type (Example 20) (UniProt P45481 586-665, limits assumed); assay: FP, 25 nM fluorescein-labelled ligand titrated with CBP KIX, 25 C
T14 construct: domain: KIX; also called wild type CBP KIX; CBP MX

HisKIX [27] = target: T13, HisKIX; assay: FP, fluorescein-labelled peptide titrated with HisKIX, 25 C
[28] = target: T15, Human recombinant Bcl-2 (1-205), soluble GST-fusion (Santa Cruz Biotechnology) (human, UniProt P10415 1-205); assay: fluorescence emission titration, fluorescein-labelled peptide + serially diluted Bcl-2, 4 C, PBS
T15 construct: Bought; also called GST-Bcl-2; not shown: glutathione S-transferase (GST) fusion partner

calmodulin (Sigma) [29] = target: T16, calmodulin (Sigma) (UniProt P62157 2-149); assay: fluorescence emission titration, fluorescein-labelled peptide + calmodulin (HEPES, KCl, CaCl2 buffer)
[30] = target: carbonic anhydrase II (Sigma); assay: fluorescence emission titration, fluorescein-labelled peptide + carbonic anhydrase II, PBS
Target sequence in this assay (chain, as listed by the source): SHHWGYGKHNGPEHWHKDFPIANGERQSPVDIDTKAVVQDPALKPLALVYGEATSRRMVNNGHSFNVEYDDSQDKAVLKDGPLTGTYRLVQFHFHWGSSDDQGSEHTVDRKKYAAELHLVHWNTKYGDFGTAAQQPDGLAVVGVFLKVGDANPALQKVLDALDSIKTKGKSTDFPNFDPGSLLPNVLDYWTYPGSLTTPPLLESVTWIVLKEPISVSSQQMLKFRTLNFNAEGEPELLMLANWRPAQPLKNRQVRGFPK

[31] = target: T15, Human recombinant Bcl-2 (1-205), …; assay: fluorescence emission titration with Bcl-2
HisKIX [32] = target: T13, HisKIX; assay: FP, fluorescein-labelled peptide titrated with HisKIX, 25 C; remark: listed apart in the source
CBP KIX Y658A [33] = target: T5, CBP KIX Y658A; assay: FP with CBP KIX variant (text value; Table 3 prints 3.9 ± 0.3)
calmodulin (Sigma) [34] = target: T16, calmodulin (Sigma); assay: FP, 50 nM fluorescein-labelled peptide titrated with calmodulin, 25 C
[35] = target: carbonic anhydrase II (Sigma); assay: FP, 50 nM fluorescein-labelled peptide titrated with carbonic anhydrase II, 25 C
Target sequence in this assay (chain, as listed by the source): as above

calmodulin (Sigma) [36] = target: T16, calmodulin (Sigma); assay: FP with calmodulin (text value; Table 2 prints 52 ± 12)
[37] = target: T14, CBP KIX, wild type (Example 20); assay: FP, fluorescein-labelled PPKID4^P titrated with CBP KIX
calmodulin (Sigma) [38] = target: T16, calmodulin (Sigma); assay: FP; specificity ratio
[39] = target: carbonic anhydrase II (Sigma); assay: FP, 50 nM fluorescein-labelled peptide titrated with carbonic anhydrase II, 25 C; remark: listed apart in the source
Target sequence in this assay (P00921 2-260): as the sequence (chain, as listed by the source) above

calmodulin (Sigma) [40] = target: T16, calmodulin (Sigma); assay: FP with calmodulin
HisKIX [41] = target: T13, HisKIX; assay: FP with HisKIX; end of the range assigned by Table 1

T5 sequence (P45481 586-665 Y658A limits assumed): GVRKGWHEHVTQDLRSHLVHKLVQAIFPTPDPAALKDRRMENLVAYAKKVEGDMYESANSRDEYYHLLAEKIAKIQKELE
T2 sequence (P45481 586-665 L603A limits assumed): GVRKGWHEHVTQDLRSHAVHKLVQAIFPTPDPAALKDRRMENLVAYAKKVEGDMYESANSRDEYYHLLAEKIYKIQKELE
T7 sequence (P45481 586-665 I657A limits assumed): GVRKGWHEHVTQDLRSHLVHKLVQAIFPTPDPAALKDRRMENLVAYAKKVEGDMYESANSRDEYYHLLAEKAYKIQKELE
T15 sequence (P10415 1-205): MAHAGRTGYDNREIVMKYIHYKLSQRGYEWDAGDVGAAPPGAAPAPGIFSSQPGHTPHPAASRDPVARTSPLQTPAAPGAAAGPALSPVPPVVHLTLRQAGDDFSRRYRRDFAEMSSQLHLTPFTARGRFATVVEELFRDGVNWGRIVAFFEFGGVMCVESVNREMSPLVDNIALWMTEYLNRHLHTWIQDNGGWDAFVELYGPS
T6 sequence (P45481 586-665 K662A limits assumed): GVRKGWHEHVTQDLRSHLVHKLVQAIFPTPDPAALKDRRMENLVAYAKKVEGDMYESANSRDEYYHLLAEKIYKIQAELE
T8 sequence (P45481 586-665 Q661A limits assumed): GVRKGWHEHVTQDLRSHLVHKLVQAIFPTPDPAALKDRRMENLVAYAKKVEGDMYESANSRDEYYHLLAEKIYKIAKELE
T12 sequence (P45481 586-665 Y658F limits assumed): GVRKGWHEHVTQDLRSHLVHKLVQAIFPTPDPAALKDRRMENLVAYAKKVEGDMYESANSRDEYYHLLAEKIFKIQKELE
T14 sequence (P45481 586-665 limits assumed): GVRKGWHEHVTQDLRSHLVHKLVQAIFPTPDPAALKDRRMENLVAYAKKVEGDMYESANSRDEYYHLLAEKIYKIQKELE
T10 sequence (P45481 586-665 Y650A limits assumed): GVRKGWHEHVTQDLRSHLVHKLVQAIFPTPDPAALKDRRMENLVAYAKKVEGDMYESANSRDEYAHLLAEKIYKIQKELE
T1 sequence (P45481 586-665 L599A limits assumed): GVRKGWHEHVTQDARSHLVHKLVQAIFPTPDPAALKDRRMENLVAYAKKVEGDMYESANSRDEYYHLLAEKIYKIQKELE
T13 sequence (P45481 586-672): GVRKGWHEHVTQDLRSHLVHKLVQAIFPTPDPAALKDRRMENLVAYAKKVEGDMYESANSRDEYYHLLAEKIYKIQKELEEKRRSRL
T11 sequence (P45481 586-665 K606A limits assumed): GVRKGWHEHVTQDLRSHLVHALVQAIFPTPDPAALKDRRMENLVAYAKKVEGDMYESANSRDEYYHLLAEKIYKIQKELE
T9 sequence (P45481 586-665 I660A limits assumed): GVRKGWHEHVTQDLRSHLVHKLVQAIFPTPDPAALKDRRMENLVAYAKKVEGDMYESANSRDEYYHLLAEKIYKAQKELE
T4 sequence (P45481 586-665 E655A limits assumed): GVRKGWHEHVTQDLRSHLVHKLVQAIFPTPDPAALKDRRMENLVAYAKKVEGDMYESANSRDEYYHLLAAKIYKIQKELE
T3 sequence (P45481 other isoform, or with tags, fused parts or gaps limits assumed): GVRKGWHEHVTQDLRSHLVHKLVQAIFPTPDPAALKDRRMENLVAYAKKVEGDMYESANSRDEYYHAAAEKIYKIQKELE

Binder	Kd (CBP KIX L599A [1])	Kd (CBP KIX L603A [2])	Kd (CBP KIX LL652-3AA [3])	Kd (CBP KIX E655A [4])	Kd (CBP KIX Y658A [5])	Kd (CBP KIX K662A [6])	Kd (CBP KIX I657A [7])	Kd (CBP KIX Q661A [8])	Kd (CBP KIX I660A [9])	Kd [10]	Kd (CBP KIX K606A [11])	Kd (CBP KIX Y658F [12])	ΔΔG relative to wild type CBP KIX (CBP KIX L599A [14])	ΔΔG relative to wild type CBP KIX (CBP KIX L603A [15])	ΔΔG relative to wild type CBP KIX (CBP KIX LL652-3AA [16])	ΔΔG relative to wild type CBP KIX (CBP KIX E655A [17])	ΔΔG relative to wild type CBP KIX (CBP KIX Y658A [18])	Kd [26]	Kd (HisKIX [27])	Kd (calmodulin (Sigma) [34])	further results
TDSQKRREILSRRP[pS]YRKILNDLSSDAPGVC-NH2 (also: C-terminal Cys acetamidofluorescein-labelled in direct assays, unlabelled as competitor, CREB KID residues 119-148 (A and B helices) plus a C-terminal Cys; also called KID-AB (phosphorylated); CREB KID^P) [KID-AB^P]	1.1 µM	3.4 µM	2.9 µM	0.71 µM	142 µM	4.8 µM	1.9 µM	0.93 µM	0.27 µM	9.4 µM	2.3 µM	26 µM	0.58 kcal/mol	1.2 kcal/mol	1.2 kcal/mol	0.32 kcal/mol	3.5 kcal/mol	0.41 µM	0.562 µM		ΔΔG upon phosphorylation (HisKIX [13]): > 3.2 kcal/mol; ΔΔG relative to wild type CBP KIX (CBP KIX K662A [19]): 1.5 kcal/mol; ΔΔG relative to wild type CBP KIX (CBP KIX I657A [20]): 0.9 kcal/mol; ΔΔG relative to wild type CBP KIX (CBP KIX Q661A [21]): 0.48 kcal/mol; ΔΔG relative to wild type CBP KIX (CBP KIX I660A [22]): -0.26 kcal/mol; ΔΔG relative to wild type CBP KIX [23]: 1.8 kcal/mol; ΔΔG relative to wild type CBP KIX (CBP KIX K606A [24]): 1 kcal/mol; ΔΔG relative to wild type CBP KIX (CBP KIX Y658F [25]): 2.5 kcal/mol
GQVGRQLAIIGDDINRYC-NH2 (not fully specified (residue 18), Labelled form used for Kd determinations carries an additional carboxy-terminal YC; The printed mass (1724) looks too small for residues 72-94; also called Bak BH3 peptide; Bak (72-94)) [Bak peptide]																					Kd [28]: 0.363 µM; Kd (calmodulin (Sigma) [29]): 25 µM; Kd [30]: 22 µM
GPSQPTYPGDDAPVEDLIRFVGRLLAYFGDTINRYC(5‑iodoacetamidofluorescein)-NH2 (designed binder, also called p4121-flu (labelled form, by order and mass)) [p4099]																					Kd [28]: 0.352 µM; Kd (calmodulin (Sigma) [29]): 25 µM; fold better binding than p4101 [31]: ~2 fold; Kd [30]: 8.6 µM
GPSQPTYPGDDAPVRRL[pS]FFYILLDLYLDAPGVC(acetamidofluorescein)-NH2 (designed binder, also called PPKID4 (phosphorylated)) [PPKID4^P]		3.4 µM	2.9 µM	0.54 µM	3.9 µM	3.9 µM	2.7 µM	1.1 µM	1.1 µM	3 µM	3.1 µM	4.1 µM						0.61 µM	0.515 µM	52 µM	Kd (HisKIX [32]): 0.515 µM; Kd (CBP KIX Y658A [33]): 4.1 µM; Kd [35]: 106 µM; Kd (calmodulin (Sigma) [36]): 51 µM; Kd [37]: 0.61 µM
RRL[pS]FFYILLDLYLDAPGVC(acetamidofluorescein)-NH2 (Chimeric alpha-helical portion of the PPKID peptides (residues 15-33); also called Peptide C (phosphorylated)) [peptide C^P]																				178 µM	fold increase in affinity over KID-B^P (HisKIX [13]): > 20 fold; fold lower affinity than PPKID4^P (HisKIX [13]): 5 fold; ΔΔG relative to KID-B^P (HisKIX [13]): -1.8 kcal/mol; Krel = Kd (CalM)/Kd (HisKIX) (calmodulin (Sigma) [38]): 74; Kd [39]: 97 µM; fold lower affinity than PPKID4^P (calmodulin (Sigma) [40]): 4 fold
GISWPTFEGDDAPVRRLSFFYILLDLYLDAPGVC(acetamidofluorescein)-NH2 (designed binder, also called PPKID6 (unphosphorylated)) [PPKID6^U]	3.3 µM	2.5 µM	0.14 µM	1.7 µM	1.7 µM	1.8 µM	3.6 µM	0.41 µM	6.1 µM	1.3 µM	1.2 µM	2.8 µM	1.1 kcal/mol	0.91 kcal/mol	-0.8 kcal/mol	0.68 kcal/mol	0.68 kcal/mol	0.54 µM	1.5 µM	> 168 µM	Kd (HisKIX [32]): 1.5 µM; fold enhancement in affinity over KID-AB^U (HisKIX [41]): ≥ 77 fold; fold enhancement in affinity over KID-B^U (HisKIX [41]): ≥ 198 fold; fold enhancement in affinity over peptide C^U (HisKIX [41]): 7 to 14 fold; ΔΔG relative to wild type CBP KIX (CBP KIX K662A [19]): 0.71 kcal/mol; ΔΔG relative to wild type CBP KIX (CBP KIX I657A [20]): 1.1 kcal/mol; ΔΔG relative to wild type CBP KIX (CBP KIX Q661A [21]): -0.16 kcal/mol; ΔΔG relative to wild type CBP KIX (CBP KIX I660A [22]): 1.4 kcal/mol; ΔΔG relative to wild type CBP KIX [23]: 0.52 kcal/mol; ΔΔG relative to wild type CBP KIX (CBP KIX K606A [24]): 0.47 kcal/mol; ΔΔG relative to wild type CBP KIX (CBP KIX Y658F [25]): 0.97 kcal/mol; Krel = Kd (CalM)/Kd (HisKIX) (calmodulin (Sigma) [38]): > 112; Kd [35]: 79 µM
